Reference: patent US20220227815A1, “COMPOSITIONS AND METHODS USEFUL IN TREATING BRAIN DISEASES” (University of Kansas, priority 2019, published 2022)

Assays:
[1] = test system: SJL/elite EAE mice; test: Suppression of EAE relapse, clinical scores; type: in vivo; details: BDNF 5.71 nmol/kg and/or ADTC5 10 μmol/kg i.v.
Experimental: EAE Mouse Model: EAE disease in animals (5-8-week-old SJL/elite female mice, Charles River) was stimulated by injecting 200 μg of PLP139-151 peptide in a 0.2 mL emulsion containing equal volumes of PBS and complete Freund's adjuvant (CFA) with killed mycobacterium tuberculosis strain H37RA (Difco, Detroit, Mich.; final concentration 4 mg/mL) as described in Kobayashi, N.; Kiptoo, P.; Kobayashi, H.; Ridwan, R.; Brocke, S.; Siahaan, T. J. Prophylactic and therapeutic suppression of experimental autoimmune encephalomyelitis by a novel bifunctional peptide inhibitor. Clin Immunol 2008, 129, (1), 69-79 and Kobayashi, N.; Kobayashi, H.; Gu, L.; Malefyt, T.; Siahaan, T. J. Antigen-specific suppression of experimental autoimmune encephalomyelitis by a novel bifunctional peptide inhibitor. J Pharmacol Exp Ther 2007, 322, (2), 879-86. Briefly, […] of PLP/CFA emulsion was administered to four different regions above the shoulders and the flanks on Day 0 followed by intraperitoneal injection of 200 ng of pertussis toxin (List Biological Laboratories, Campbell, Calif.) on Days 0 and 2. Clinical scores that reflect the disease progression were determined using an 11-point scale with 0.5 increments ranging from 0 to 5; 0 being no apparent disease and 5 being moribund. On Day 21, mice were randomly separated into […]: (i) BDNF (5.7 nmol/kg)+ADTC5 (10 μmol/kg; n=7), (ii) BDNF alone (5.71 nmol/kg, n=6), (iii) ADTC5 alone (10 μmol/kg; n=5), and (iv) vehicle (n=5). All mice received 8 intravenous injections every 4 days beginning on Day 21. The mice were euthanized via CO2 inhalation on Day 55. Area under the curve (AUC) calculations were used to compare clinical scores across groups; AUC calculations were performed using the trapezoid rule from Days 21 to 55.

[2] = test system: APP/PS1 mice; test: Novel object recognition (NOR) assessment; type: in vivo, transgenic APP/PS1 mice; details: all groups compared
Experimental: Animals: All animal studies were carried out under the approved animal protocol (AUS-74-11) granted by Institutional Animal Care and Use Committee (IACUC) at The University of Kansas. Animal Care Unit (ACU) personnel and veterinarians were involved in the care of the animals used in this study. Female transgenic APP/PS1 (MMRRC stock #34832-Jax) were obtained from Jackson Laboratory (Bar Harbor, Me.) and housed until at least 6 months of age. Mice received intravenous (i.v.) injections of either BDNF (5.7 nmol/kg)+ADTC5 (10 μmol/kg; n=7), BDNF alone (5.7 nmol/kg; n=6), or vehicle (n=6) every 4 days, for a total of 8 injections. At the end of the study, the mice were euthanized via CO2 inhalation and perfused with PBS immediately followed by 4% formalin fixative solution. The brains were extracted and post-fixed overnight in the perfusion-fixation solution then transferred to 70% ethanol PBS solution for paraffin embedding.
Novel object recognition assessment: Twenty-four hours following the Y-maze assessment, the mice were subjected to Novel Object Recognition (NOR) assessment. […] The mice were allowed to explore the objects for 10 min and the total amount of time each mouse spent interacting with each object was measured. […]

B1: BDNF: recombinant brain-derived neurotrophic factor (13 kDa monomer), Peprotech (protein, UniProt P23560 19-247, looked up)
Neurotrophic factor BDNF …: APMKEANIRGQGGLAYPGVRTHGTLESVNGPKAGSRGLTSLADTFEHVIEELLDEDQKVRPNEENNKDADLYTSRVMLSSQVPLEPPLLFLLEEYKNYLDAANMSMRVRRHSDPARRGELSVCDSISEWVTAADKKTAVDMSGGTVTVLEKVPVSKGQLKQYFYETKCNPMGYTKEGCRGIDKRHWNSQCRTTQSYVRALTMDSKKRIGWRFIRIDTSCVCTLTIKRGR
locomotion / paralysis observed ([1]; 8 injections): partial or full hind leg paralysis and full tail paralysis | EAE clinical body scores ([1]; 8 injections every 4 days from day 21, compared with other groups/vehicle): no significant difference | total time spent with either of the two objects [2]: no significant difference
